{"source": "patent US20110305750", "system": "GST-MT1-MMP cytoplasmic tail fusion protein"}
{"substance": "recombinant Src kinase", "values": [{"measurement": "tyrosine phosphorylation of GST-MT in an in vitro phosphorylation assay (western blot)", "value": "Src-mediated tyrosine phosphorylation of GST-MT"}]}
